How the values were obtained:
[1] = target: T1, full length CD32b2 on transfected IIA1.6 cells (human, UniProt P31994-2 43-291); test: flow cytometry on IIA1.6-CD32b2 cells
T1 construct: whole, on cells; also called IIA1.6-CD32b2
T1 sequence (looked up): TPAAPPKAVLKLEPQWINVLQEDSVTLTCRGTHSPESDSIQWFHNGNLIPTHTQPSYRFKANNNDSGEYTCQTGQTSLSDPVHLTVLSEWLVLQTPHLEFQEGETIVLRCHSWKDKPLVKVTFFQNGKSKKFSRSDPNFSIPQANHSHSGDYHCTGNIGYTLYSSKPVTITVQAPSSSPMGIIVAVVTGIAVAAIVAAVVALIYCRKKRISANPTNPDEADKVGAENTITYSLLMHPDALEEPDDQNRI
Experimental: After harvesting and counting, IIA1.6 cells stably transfected with full length CD32a and CD32b (van den Herik-Oudijk et al., 1994), control IIA1.6 cells and Daudi-luc cells were resuspended in PBS (1×10⁶ cells/ml). Cells were put in 96-well V-bottom plates (100 μl/well) and washed twice with FACS buffer (PBS supplemented with 0.1% BSA and 0.02% Na-azide). Thereafter, 50 μl of serially diluted HuMab in FACS buffer was added to the cells and incubated for 30 minutes at 4° C. After washing three times with FACS buffer, 50 μl of phycoerythrin (PE)-conjugated rabbit anti-human IgG (Jackson ImmunoResearch Europe), diluted 1:200 in FACS buffer, was added. After 30 minutes at 4° C. (in the dark), cells were washed three times, and specific binding of the HuMabs was detected by flow cytometry on a FACSCalibur (BD Biosciences). […] Binding curves were analyzed using non-linear regression (sigmoidal dose-response with variable slope) using GraphPad Prism V4.03 software (GraphPad Software, San Diego, Calif., USA).
To analyze binding of anti-CD32b HuMabs to CD32b1 and CD32b2, IIA1.6 cells transfected with full length CD32b1 or CD32b2 (van den Herik-Oudijk et al., 1994) were prepared as described supra. The assay was performed as described supra. Flow cytometry was performed on a FACS Canto II (BD Biosciences).

biotinylated CD32bECDHis [2] = target: T2, biotinylated CD32bECDHis (human, UniProt P31994 43-223, limits assumed, biotinylated (sites not given)); test: competition ELISA, competitor 016
T2 sequence (looked up): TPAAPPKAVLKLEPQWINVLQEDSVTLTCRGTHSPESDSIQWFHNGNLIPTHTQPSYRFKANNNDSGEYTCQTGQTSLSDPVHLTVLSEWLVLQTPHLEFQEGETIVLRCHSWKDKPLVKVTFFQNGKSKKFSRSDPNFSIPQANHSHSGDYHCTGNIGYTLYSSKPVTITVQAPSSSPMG
Experimental: (§1) ELISA wells were coated overnight at 4° C. with anti-CD32b HuMabs serially diluted in PBS. The ELISA wells were washed with PBS, blocked for one hour at room temperature with 2% (v/v) chicken serum (Gibco, Paisley, Scotland) in PBS and washed again with PBS. Subsequently, the immobilized antibodies were incubated with biotinylated CD32bECDHis serially diluted in PBSTC. After washing with PBS/Tween, bound biotinylated CD32bECDHis was incubated with Streptavidin-poly-HRP (Sanquin, Amsterdam, The Netherlands) for 1 hr at RT an the reaction was developed as described supra.
(§2) To this end, ELISA wells coated with anti-CD32b HuMabs were incubated in the presence of an excess of CD32b-specific antibody and the predetermined concentration of biotinylated CD32bECDHis in fluid phase. The reaction was developed as described.

biotinylated CD32bECDHis [3] = target: T2, biotinylated CD32bECDHis; test: competition ELISA, competitor 020
Experimental: as §1, §2

biotinylated CD32bECDHis [4] = target: T2, biotinylated CD32bECDHis; test: competition ELISA, competitor 022
Experimental: as §1, §2

biotinylated CD32bECDHis [5] = target: T2, biotinylated CD32bECDHis; test: competition ELISA, competitor 024
Experimental: as §1, §2

biotinylated CD32bECDHis [6] = target: T2, biotinylated CD32bECDHis; test: competition ELISA, competitor 026
Experimental: as §1, §2

biotinylated CD32bECDHis [7] = target: T2, biotinylated CD32bECDHis; test: competition ELISA, competitor 028
Experimental: as §1, §2

biotinylated CD32bECDHis [8] = target: T2, biotinylated CD32bECDHis; test: competition ELISA, competitor 034
Experimental: as §1, §2

biotinylated CD32bECDHis [9] = target: T2, biotinylated CD32bECDHis; test: competition ELISA, competitor 038
Experimental: as §1, §2

biotinylated CD32bECDHis [10] = target: T2, biotinylated CD32bECDHis; test: competition ELISA, competitor 053
Experimental: as §1, §2

biotinylated CD32bECDHis [11] = target: T2, biotinylated CD32bECDHis; test: competition ELISA, competitor 063
Experimental: as §1, §2

biotinylated CD32bECDHis [12] = target: T2, biotinylated CD32bECDHis; test: competition ELISA, competitor 2B6
Experimental: as §1, §2

CD32bECDHis = target: T3, CD32bECDHis (human, UniProt P31994 43-223, limits assumed); test: TR-FRET competition against HuMab-KLH-AlexaFluor 647 (N = 2)
T3 construct: Produced in HEK-293F cells; also called extracellular domain of CD32b with C-terminal His tag; soluble CD32b
T3 sequence (looked up): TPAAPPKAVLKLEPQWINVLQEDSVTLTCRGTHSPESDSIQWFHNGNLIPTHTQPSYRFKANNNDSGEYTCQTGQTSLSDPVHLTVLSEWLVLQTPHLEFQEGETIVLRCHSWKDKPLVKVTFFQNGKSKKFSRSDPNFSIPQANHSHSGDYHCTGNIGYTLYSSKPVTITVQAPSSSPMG
Description: To study the interaction of anti-CD32b HuMabs with CD32b and CD32a in more detail TR-FRET technology was applied. To this end, CD32bECDHis and CD32aECDHis were labeled with a fluorescent donor molecule directed against the histidine tag (Anti-6×His Europium3+, PerkinElmer, Boston Mass.).
Briefly, all dilutions were made in 0.5× Lance detection buffer (PerkinElmer, Boston Mass.) supplemented with 0.2% BSA (obtained via dilution of 7.5% BSA Stabilizer solution, cat: CR84-100, PerkinElmer) and 0.03% (v/v) Tween-20 (Riedel de Haen, Seelze, Germany). CD32bECDHis and CD32aECDHis were diluted to 0.5 μg/ml. […] Anti-6×His Europium3+ (PerkinElmer, Boston Mass.) was diluted to 0.15 μg/ml. […] After overnight incubation at 4° C. in the dark, fluorescence was measured using an EnVision 2101 Multilabel reader (PerkinElmer, Boston, Mass.) applying the following settings; Lance/Delfia dual mirror, emission filter 615-665 nm, excitation filter 320 nm, delay time 60 μs, window 100 μs, 100 flashes, 2000 μs per cycle and bidirectional row-by-row reading. Binding curves were analyzed using non-linear regression (sigmoidal dose-response with variable slope) using GraphPad Prism V4.03 software (GraphPad Software, San Diego, Calif., USA).

B1: Antibody 034 (antibody, human IgG1, V domains shown)
VH: EVQLLESGGGLVQPGGSLRLSCAASGFTFSNFVMSWVRQAPGKGLEWVSGISGSGGNTDHADSVKGRFTISRDNSKNTVYLQMNSLRAEDTAVYYCAKDSGGLFDYWGLGTLVTVSS
VL: not shown
notes: Human antibody; also called HuMab 034
EC50 [1]: 69 nM
% residual binding (biotinylated CD32bECDHis [2]): 98%
% residual binding (biotinylated CD32bECDHis [3]): 83%
% residual binding (biotinylated CD32bECDHis [4]): 63%
% residual binding (biotinylated CD32bECDHis [5]): 56%
% residual binding (biotinylated CD32bECDHis [6]): 83%
% residual binding (biotinylated CD32bECDHis [7]): 75%
% residual binding (biotinylated CD32bECDHis [8]): 23%
% residual binding (biotinylated CD32bECDHis [9]): 98%
% residual binding (biotinylated CD32bECDHis [10]): 90%
% residual binding (biotinylated CD32bECDHis [11]): 89%
% residual binding (biotinylated CD32bECDHis [12]): 90%
IC50 (CD32bECDHis): 0.45 nM

From patent US20110038869A1 (Genmab, published 2011)
